B3: Streptococcus pneumoniae pneumolysin, recombinant (natural protein)
chain: ANKAVNDFILAMNYDKKKLLTHQGESIENRFIKEGNQLPDEFVVIERKKRSLSTNTSDISVTATNDSRLYPGALLVVDETLLENNPTLLAVDRAPMTYSIDLPGLASSDSFLQVEDPSNSSVRGAVNDLLAKWHQDYGQVNNVPARMQYEKITAHSMEQLKVKFGSDFEKTGNSLDIDFNSVHSGEKQIQIVNFKQIYYTVSVDAVKNPGDVFQDTVTVEDLKQRGISAERPLVYISSVAYGRQVYLKLETTSKSDEVEAAFEALIKGVKVAPQTEWKQILDNTEVKAVILGGDPSSGARVVTGKVDMVEDLIQEGSRFTADHPGLPISYTTSFLRDNVVATFQNSTDYVETKVTAYRNGDLLLDHSGAYVAQYYITWDELSYDHQGKEVLTPKAWDRNGQDLTAHFTTSIPLKGNVRNLSVKIRECTGLAWEWWRTVYEKTDLPLVRKRTISIWGTTLYPQVEDKVEND
notes: pneumolysin of S. pneumoniae strain R6, residues 2-471 of WP_001284359.1; pQE30 vector; In the folding assays it was denatured in 8 M urea and then diluted; also called Ply; Ply toxin

Data set [1] concerns the molecule itself. The experiment in a line: crystal structure; X-ray structures of SpnPrsA (2.55 A) and SmuPrsA (3.15 A); dimers in the crystal.
Data set [2] deals with B3. The experiment in a line: ITC; chaperone in the syringe, Ply in the sample cell; 20 mM MES, 100 mM NaCl, 1 mM beta-mercaptoethanol, 10% glycerol, pH 6.5, 25 C; independent binding model. The following applies: both partners purified. (In ITC the heat of successive injections is recorded.)
In another data set the target is T1, bovine serum albumin (bovine, UniProt P02769 25-607).
T1 construct: also called BSA
The experiment in a line: MST; chaperone labelled with red NHS dye kept at 20 nM, unlabelled protein in serial dilution; pH 6.5, 0.05% Tween 20, 25 C; 1:1 model in PALMIST, 95% CI. Conditions: both partners purified.

Data set [3] deals with B3. The data set is described as above. The following applies: both partners purified.
For data set [4], the target named is T2, Streptococcus pneumoniae SlrA (Streptococcus pneumoniae strain R6, UniProt Q8DQG5 19-267).
T2 construct: also called SpnSlrA; hexa-his-tagged SpnSlrA; source: E. coli BL21 (DE3), expressed and purified similarly to Ply (Ni-NTA, dialysis); not shown: His6, N-terminal, kept
The experiment in a line: ITC; chaperone in the syringe, Ply in the sample cell; 20 mM MES, 100 mM NaCl, 1 mM beta-mercaptoethanol, 10% glycerol, pH 6.5, 25 C; independent binding model. Conditions: both partners purified.

Data set [5] concerns the target T2, Streptococcus pneumoniae SlrA. The experiment in a line: MST; chaperone labelled with red NHS dye kept at 20 nM, unlabelled protein in serial dilution; pH 6.5, 0.05% Tween 20, 25 C; 1:1 model in PALMIST, 95% CI. Conditions: both partners purified.

T1 sequence (P02769 25-607): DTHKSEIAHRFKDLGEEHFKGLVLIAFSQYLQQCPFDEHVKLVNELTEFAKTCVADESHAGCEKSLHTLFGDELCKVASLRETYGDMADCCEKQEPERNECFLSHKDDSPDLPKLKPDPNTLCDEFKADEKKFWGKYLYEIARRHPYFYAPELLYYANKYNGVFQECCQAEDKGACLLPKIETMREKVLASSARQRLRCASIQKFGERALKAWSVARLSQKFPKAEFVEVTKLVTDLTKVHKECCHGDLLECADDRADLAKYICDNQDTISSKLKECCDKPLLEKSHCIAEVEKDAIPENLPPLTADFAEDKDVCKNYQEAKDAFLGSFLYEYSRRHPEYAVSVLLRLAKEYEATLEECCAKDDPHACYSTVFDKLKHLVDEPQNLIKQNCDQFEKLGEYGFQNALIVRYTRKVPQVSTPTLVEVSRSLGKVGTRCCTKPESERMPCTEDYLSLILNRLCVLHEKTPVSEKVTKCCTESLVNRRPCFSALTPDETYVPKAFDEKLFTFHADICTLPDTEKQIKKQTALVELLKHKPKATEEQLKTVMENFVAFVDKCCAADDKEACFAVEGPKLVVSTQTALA

B1: Streptococcus pneumoniae PrsA (enzyme)
chain: GADLISMKGDVITEHQFYEQVKNNPSAQQVLLNMTIQKVFEKQYGSELDDKEVDDTIAEEKKQYGENYQRVLSQAGMTLETRKAQIRTSKLVELAVKKVAEAELTDEAYKKAFDEYTPDVTAQIIRLNNEDKAKEVLEKAKAEGADFAQLAKDNSTDEKTKENGGEITFDSASTEVPEQVKKAAFALDVDGVSDVITATGTQAYSSQYYIVKLTKKTEKSSNIDDYKEKLKTVILTQKQNDSTFVQSIIGKELQAANIKVKDQAFQNIFTQYIGGGDSSSSSSTSNE
notes: also called SpnPrsA; hexa-his-tagged SpnPrsA; not shown: His6, N-terminal, kept
Turning to B1, in data set [1], the binding result was “binds”. Besides, in data set [2], the Ka was 8.38e+06 M⁻¹; the Kd – broadly, a measure of binding affinity in units of concentration – stood at 119 ± 25.9 nM; the dH is -100 ± 3.74 kcal/mol; the stoichiometry N (commonly the number of molecules, sites or subunits per partner or assembly) worked out at 1.85. This molecule also registered a Kd in the data set with bovine serum albumin of 62000 ± 58000 nM. Further, the Kd in data set [3] is 70 nM.

B2: Streptococcus mutans PrsA (enzyme)
chain: ACSKTNQNSKIATMKGDTITVADFYNEVKNSTASKQAVLSLLVSKVFEKQYGDKVSDKEVTKAYNEAAKYYGDSFSSALASRGYTKEDYKKQIRSEKLIEYAVKEEAKKEITDASYKSAYKDYKPEVTAQVIQLDSEDKAKSVLEEAKADGADFAKIAKDNTKGDKTEYSFDSGSTNLPSQVLSAALNLDKDGVSDVIKASDSTTYKPVYYIVKITKKTDKNADWKAYKKRLKEIIVSQKLNDSNFRNAVIGKAFKKANVKIKDKAFSEILSQY
notes: also called SmuPrsA
Regarding B2, the binding result in data set [1] is “binds”.
Consider B3, for which the Ka in data set [4] is 1.23e+07 M⁻¹. For the same molecule, the Kd in data set [4] was 81.2 ± 18 nM; in data set [5], 60 nM.

The values are drawn from paper PMC11853100, “Structural analysis of extracellular ATP-independent chaperones of streptococcal species and protein substrate interactions” (mSphere, 2025).
